In patent US20220265759:

Molecular target: T1, human chemokine receptor CCR10, P46092
T1 chain: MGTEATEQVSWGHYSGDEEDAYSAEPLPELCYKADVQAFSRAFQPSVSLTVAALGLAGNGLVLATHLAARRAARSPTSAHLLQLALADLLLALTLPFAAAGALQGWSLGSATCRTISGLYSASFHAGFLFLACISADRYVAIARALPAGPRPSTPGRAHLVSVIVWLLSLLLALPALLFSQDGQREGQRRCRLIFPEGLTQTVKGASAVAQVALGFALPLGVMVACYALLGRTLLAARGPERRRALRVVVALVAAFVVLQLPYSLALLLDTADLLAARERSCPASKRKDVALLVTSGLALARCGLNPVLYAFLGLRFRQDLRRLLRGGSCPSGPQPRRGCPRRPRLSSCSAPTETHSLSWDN

B1: human endothelial nitric oxide synthase (eNOS) (protein)
chain: GNLKSVAQEPGPPCGLGLGLGLGLCGKQGPATPAPEPSRAPASLLPPAPEHSPPSSPLTQPPEGPKFPRVKNWEVGSITYDTLSAQAQQDGPCTPRRCLGSLVFPRKLQGRPSPGPPAPEQLLSQARDFINQYYSSIKRSGSQAHEQRLQEVEAEVAATGTYQLRESELVFGAKQAWRNAPRCVGRIQWGKLQVFDARDCRSAQEMFTYICNHIKYATNRGNLRSAITVFPQRCPGRGDFRIWNSQLVRYAGYRQQDGSVRGDPANVEITELCIQHGWTPGNGRFDVLPLLLQAPDDPPELFLLPPELVLEVPLEHPTLEWFAALGLRWYALPAVSNMLLEIGGLEFPAAPFSGWYMSTEIGTRNLCDPHRYNILEDVAVCMDLDTRTTSSLWKDKAAVEINVAVLHSYQLAKVTIVDHHAATASFMKHLENEQKARGGCPADWAWIVPPISGSLTPVFHQEMVNYFLSPAFRYQPDPWKGSAAKGTGITRKKTFKEVANAVKISASLMGTVMAKRVKATILYGSETGRAQSYAQQLGRLFRKAFDPRVLCMDEYDVVSLEHETLVLVVTSTFGNGDPPENGESFAAALMEMSGPYNSSPRPEQHKSYKIRFNSISCSDPLVSSWRRKRKESSNTDSAGALGTLRFCVFGLGSRAYPHFCAFARAVDTRLEELGGERLLQLGQGDELCGQEEAFRGWAQAAFQAACETFCVGEDAKAAARDIFSPKRSWKRQRYRLSAQAEGLQLLPGLIHVHRRKMFQATIRSVENLQSSKSTRATILVRLDTGGQEGLQYQPGDHIGVCPPNRPGLVEALLSRVEDPPAPTEPVAVEQLEKGSPGGPPPGWVRDPRLPPCTLRQALTFFLDITSPPSPQLLRLLSTLAEEPREQQELEALSQDPRRYEEWKWFRCPTLLEVLEQFPSVALPAPLLLTQLPLLQPRYYSVSSAPSTHPGEIHLTVAVLAYRTQDGLGPLHYGVCSTWLSQLKPGDPVPCFIRGAPSFRLPPDPSLPCILVGPGTGIAPFRGFWQERLHDIESKGLQPTPMTLVFGCRCSQLDHLYRDEVQNAQQRGVFGRVLTAFSREPDNPKTYVQDILRTELAAEVHRVLCLERGHMFVCGDVTMATNVLQTVQRILATEGDMELDEAGDVIGVLRDQQRYHEDIFGLTLRTQEVTSRIRTQSFSLQERQLRGAVPWAFDPPGSDTNSP
  eNOS phosphorylation (Ser1177) in presence of Myr-CBD7: eNOS phosphorylation (Ser1177) was significantly enhanced in presence of Myr-CBD7
  phosphorylation of eNOS after CCR10 siRNA knockdown (western blot, A23187 stimulation): phosphorylation of eNOS was significantly increased compared to control siRNA, even at 0 minutes
